The results in this text go back to paper PMC6544321.

The target of assay [1] is yeast single-chain H2A.Z-H2B (yeast). Put plainly: ITC; MicroCal VP-ITC, 25°C, 20 mM MES (pH 6.0), 0.5 M NaCl; chaperone (50 or 150 μM) injected into histones (5 μM scZB or 15 μM scAB and mutants) in the cell; one-site fit. On the technique in general: Isothermal titration calorimetry measures the heat released or taken up as one component is titrated into another.
Assay [2] has the same target. Put plainly: ITC; 0.2 M NaCl (Table 1); Swc2-Z or Chz1-M injected into single-chain histone dimers; otherwise as the ITC methods (25°C, 20 mM MES pH 6.0).
Assay [3] concerns the target single-chain H2A.Z-H2B with H2B Y45A/M62A (yeast). Put plainly: ITC; MicroCal VP-ITC, 25°C, 20 mM MES (pH 6.0), 0.5 M NaCl; chaperone (50 or 150 μM) injected into histones (5 μM scZB or 15 μM scAB and mutants) in the cell; one-site fit.
Assay [4] has as its target single-chain H2A.Z-H2B with H2A.Z A57P/G98N (yeast). The description is as above.
The target in assay [5] is single-chain H2A.Z-H2B with H2A.Z RA→GNV (yeast). The assay is described as above.
Assay [6] has as its target single-chain H2A.Z-H2B with H2A.Z G98N (yeast). The assay is described as above.
In assay [7] the target is single chain H2A-H2B with H2A P50A/N91G (yeast). The description is as above.
Assay [8] concerns the target single-chain H2A.Z-H2B with H2A.Z A57P (yeast). Described as above.

B1: middle region of Chz1 (Chz1 64-124) (domain or fragment)
chain: TVEDSESDMDDAKLDALMGNEGEEEEDDLAEIDTSNIITSGRRTRGKVIDYKKTAEELDKK
Broadly, the Kd is the constant that tells how readily two partners part at equilibrium. Lower therefore signals higher affinity. One may read the stoichiometry N as a count of units in the complex or per binding partner. As for B1, in assay [1], the Kd turned out to be 1.06 µM and the stoichiometry N turned out to be 1 sites. Further, in assay [2], the Kd amounted to 0.02 µM and the stoichiometry N was determined as 1 sites.

B2: full-length Chz1 (natural protein)
chain: MSDEAKEKRELESQKESSHNKSEKSVEPKPKRRRRRNYDDYDAEVAKEETKAKNGLTKSENNGTVEDSESDMDDAKLDALMGNEGEEEEDDLAEIDTSNIITSGRRTRGKVIDYKKTAEELDKKEPSTGSKDDVGYGEKEEDDEDEEDDDFKE
In assay [1], B2 registered a Kd of 0.13 µM and a stoichiometry N of 1 sites.

B3: middle and C-terminal region of Chz1 (Chz1 64-153) (domain or fragment)
chain: TVEDSESDMDDAKLDALMGNEGEEEEDDLAEIDTSNIITSGRRTRGKVIDYKKTAEELDKKEPSTGSKDDVGYGEKEEDDEDEEDDDFKE
As to B3, the Kd amounted to 1.12 µM in assay [3]; 0.12 µM in assay [1]; 3.39 µM in assay [4]; 0.19 µM in assay [5]; 0.97 µM in assay [6]; 0.16 µM in assay [7]. In assay [8], this molecule yielded a Kd of 0.74 µM. In addition, the stoichiometry N in assay [3] was found to be 0.8 sites; in assay [1] it was 0.9 sites; in assay [4], 1.1 sites; in assay [5], 1 sites; in assay [6], 0.9 sites; in assay [7], 1.1 sites. In addition, the stoichiometry N in assay [8] stood at 1 sites.
